Assay [1] deals with T1, human CD70 expressed on the cell surface of tumor cell lines (human, UniProt P32970 1-193).
T1 sequence (looked up): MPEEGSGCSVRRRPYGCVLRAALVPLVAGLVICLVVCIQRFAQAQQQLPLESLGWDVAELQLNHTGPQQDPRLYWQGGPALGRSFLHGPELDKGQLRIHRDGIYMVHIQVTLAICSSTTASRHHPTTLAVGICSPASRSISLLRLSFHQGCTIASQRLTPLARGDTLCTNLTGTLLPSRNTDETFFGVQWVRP
As to the kind of experiment: cell-based or functional assay.

For assay [2], the target named is T1, human CD70 expressed on the cell …. As to the kind of experiment: flow cytometry on Raji cells. The procedure: Binding activity of 2E7 or the isotype control with a target cell line (Raji) or a cell line (MCF-7) that has negligible level of CD70 expression were evaluated by flow cytometry (Beckman, Cytoflex). 3×10⁵ cells per well were seeded on a 96-well V-bottomed plate and incubated with 100 μl of 2E7 in serial dilutions. After 30 min incubation at 4° C., cells were washed twice with PBS, stained with 100 μl of 1:200 diluted PE-conjugated anti-human Fc in FACS buffer (1×PBS containing 1% BSA), then incubated at 4° C. for 30 min. Cells were finally washed two times with PBS and analyzed by flow cytometric analysis.
(In general: A flow cytometer gives signals particle by particle.)

The target is the same in assay [3]. As to the kind of experiment: flow cytometry on U251 cells. As to the method:
(§1) The lead antibodies were tested for binding to renal carcinoma cells and glioblastoma cells expressing CD70 on the cell surface by flow cytometry. […] U251 cells were cultured with MEM medium containing of 10% FBS and 1% NEAA+1 mM sodium pyruvate. DBTRG-05MG cells were cultured with DMEM medium (Gibco, Cat #C11995500BT) containing of 10% FBS. Each of the lead antibodies and the controls were incubated for 30 mins with the different cell lines (3×10⁵ cells per well) in 0.2 ml FACS buffer (1×PBS with 0.1% BSA) at 4° C. Then, the cells were pelleted, washed, and incubated at 4° C. for 30 mins with 100 μl of 1:200 diluted PE-conjugated anti human Fc (Abcam, Ab98596) in FACS buffer. The cells were pelleted again, washed with PBS, resuspended in FACS buffer and analyzed by flow cytometer (Beckman, CytoFLEX).
(§2) Antibodies 2H8 and 2D2 had slightly higher binding ability to the cell lines than that of antibody 69A7.

Assay [4] concerns the target T2, human CD70 recombinant protein (human, UniProt P32970 39-193, limits assumed).
T2 construct: May be the same reagent as ACRO CDL-H5246; also called CD70 protein
T2 sequence (looked up): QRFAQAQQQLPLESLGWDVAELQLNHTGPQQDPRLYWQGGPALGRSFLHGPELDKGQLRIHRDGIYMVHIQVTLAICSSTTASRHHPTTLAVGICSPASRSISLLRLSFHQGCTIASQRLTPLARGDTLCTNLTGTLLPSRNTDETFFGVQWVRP
As to the kind of experiment: ELISA, coated human CD70, IgG titrated. The procedure:
(§3) The binding specificity of the CD70 antibodies was tested by ELISA according to a standard protocol. Briefly, 96-well micro-plates were coated with 2 μg/ml of human or cynomolgus CD70 recombinant protein in PBS at 100 μl per well and incubated overnight at 4° C. The plates were washed twice with TBS+0.5% Tween20. 200 μL of blocking buffer (2% BSA in PBS) was added to each well, and the plates were incubated at 37° C. for 2 hours. The plates were washed using the wash buffer mentioned above. Serially diluted antibodies were added to the ELISA plates using 100 μl per well, and the plates were incubated for 1 hour at room temperature. Then plates were washed 3 times. HRP conjugated anti-human Fc antibody solution (Sigma, I18885-2ML, diluted with blocking buffer) was added to the plates using 100 μl per well. The plates were incubated at room temperature for 1 hour and then washed 3 times. Then the TMB solution was added to plates using 100 μl per well and the plates were placed at RT for 5-15 mins. Then the stop solution (2M H2SO4) was added using 50 μl per well. The absorbance was measured at A450 and A630.

For assay [5], the target named is T1, human CD70 expressed on the cell …. As to the kind of experiment: flow cytometry on DBTRG-05MG cells. As to the method:
as §1, §2

The target in assay [6] is T3, CD70 ECD (antigen immobilized on the CM5 chip) (UniProt P32970 39-193).
T3 construct: extracellular domain; also called CD70 antigen
T3 sequence (looked up): T2 sequence (looked up)
As to the kind of experiment: SPR (Biacore T200), CD70 ECD on CM5 chip, IgG as analyte. The procedure: The immobilization of antigen CD70 ECD was performed at 25° C. with HBS-EP as the running buffer. Sensor chip surface of flow cells 1, 4 were activated by freshly mixed 50 mmol/L N-Hydroxy succinimide (NHS) and 200 mmol/L 1-ethyl-3-(3-dimethylaminopropyl) carbodiimide hydrochloride (EDC) for 420s (10 μL/min). Afterwards, CD70 antigen diluted in 10 mmol/L NaAC (pH 4.5) was injected into flow cell 4 to achieve conjugation of the appropriate Response Unit, while flow cell 1 was set as a blank. After the amine coupling reaction, the remaining active coupling sites on chip surface were blocked by 420s injection of 1 mol/L ethanolamine hydrochloride.
The assay was performed at 25° C. and the running buffer was HBS-EP. Diluted antibodies were injected over the surface of flow cells 1 and 4 during the association phase, followed by injecting running buffer as the dissociation phase. All the data were processed using Biacore T200 Evaluation software version 3.1. Flow cell 1 and a blank injection of buffer in each cycle were used as a double reference for Response Units subtraction. Kinetic data of the interaction between the antibodies and CD70 antigen were obtained through affinity measurement.
(In SPR one partner is held on a chip, and binding of the other changes the refractive index at the surface.)

In assay [7] the target is T1, human CD70 expressed on the cell …. As to the kind of experiment: flow cytometry on U251 cells, PE anti-human Fc, MFI; same fit as Table 6, which prints it in nM. The procedure: as §1, §2
For assay [8] the target is unchanged. As to the kind of experiment: flow cytometry on Caki-1 cells, PE anti-human Fc, MFI; same fit as Table 6, which prints it in nM. The procedure: as §1, §2
The target in assay [9] is T4, cynomolgus CD70 recombinant protein (cynomolgus, UniProt A0A2K5WTU9 39-190).
T4 construct: also called cyno-antigen; cynomolgus CD70 protein
T4 sequence: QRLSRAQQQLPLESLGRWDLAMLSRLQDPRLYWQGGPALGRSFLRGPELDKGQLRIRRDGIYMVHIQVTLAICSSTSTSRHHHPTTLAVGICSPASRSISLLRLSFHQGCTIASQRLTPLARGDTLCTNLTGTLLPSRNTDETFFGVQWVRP
As to the kind of experiment: ELISA, IgG titrated on coated cynomolgus CD70 recombinant protein (2 µg/ml), anti-human Fc-HRP, OD450. As to the method:
as §3
In general terms: ELISA stands for enzyme-linked immunosorbent assay.

Broadly, the EC50 is the concentration at which the effect is half-maximal. As usually defined, the Kd is a measure of binding affinity in units of concentration. What is called koff is the first-order rate constant of dissociation. High values mean fast dissociation, low ones slow dissociation. Usually kon stands for a measure of how fast the partners come together. A low value points to slow association.

B1: 2E7, full IgG (antibody, V domains shown)
VH: QVQLQESGPGLVKPSETLSLTCTVSGGSVSSDYYYWSWIRQPPGKGLEWLGYIYYSGSTNYNPSLKSRVTISVDTSKNQFSLKLRSVTTADTAVYYCARGDGDFLGVCFDYWGQGTLVTVSS
VL: EIVLTQSPATLSLSPGERATLSCRASQSVSSYLAWYQQKPGQAPRLLIFDASNRATGIPARFSGSGSGTDFTLTISSLEPEDFAVYYCQQRSNWPLTFGGGTKVEIK
In the case of B1, the “Internalization rate (%) on 786-O” value in assay [1] came to 62%. In addition, in [1], the “Internalization rate (%) on Caki-1” value was determined as 51%. For the same molecule, the EC50 in assay [2] was roughly 19 nM; in [3] it was 4.03 nM; in [5] it was 6.11 nM; in assay [7], 0.604 µg/mL; in assay [8] it was 0.421 µg/mL; in assay [9], 0.00401 µg/mL. Besides, the “EC50 ratio against antibody 69A7” value in assay [4] is 1.5 times. Besides, binding in [6] was characterised by a dissociation constant (Kd) of 14 nM. In assay [6], this molecule gave a koff of 0.00106 s⁻¹. For the same molecule, the kon in [6] stood at 75400 M⁻¹ s⁻¹.

Source of the values: US20250066490A1 (PROFOUNDBIO US, published 2025).
